Data: US20260042827A1, “ANTI-WT1 ANTIGEN-BINDING PROTEINS AND USES THEREOF” (UNIVERSITY HEALTH NETWORK, priority 2022, published 2026)

T1: HLA-DP4 (human), P20036
T1 chain 1: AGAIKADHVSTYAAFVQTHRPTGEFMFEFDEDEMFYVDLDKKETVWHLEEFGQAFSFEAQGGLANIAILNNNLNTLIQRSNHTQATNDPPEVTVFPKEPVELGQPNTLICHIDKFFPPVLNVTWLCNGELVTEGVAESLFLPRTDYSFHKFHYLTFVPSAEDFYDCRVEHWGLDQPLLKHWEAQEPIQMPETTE
T1 chain 2: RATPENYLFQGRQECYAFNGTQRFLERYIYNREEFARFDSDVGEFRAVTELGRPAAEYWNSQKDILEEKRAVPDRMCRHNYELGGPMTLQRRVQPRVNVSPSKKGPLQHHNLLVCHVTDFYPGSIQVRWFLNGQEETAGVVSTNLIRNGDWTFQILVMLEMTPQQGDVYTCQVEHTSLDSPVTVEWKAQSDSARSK


Biological target: T1, HLA-DP4 (human), P20036
Assay: competition
Settings: modification not given

| Binder | IC50 [mM] |
| --- | --- |
| PGCNKRYFKLSHLAMHSRKHT [341A] | 8.51 |
| PGCNKAYFKLSHLQMHSRKHT [333A] | 0.3 |
| PACNKRYFKLSHLQMHSRKHT [329A] | 5.44 |
| PGCNARYFKLSHLQMHSRKHT [332A] | 4.74 |
| PGCNKRYFKLSHLQMHSAKHT [345A] | 9.37 |
| PGCAKRYFKLSHLQMHSRKHT [331A] | 7.46 |
